Assay results as given in patent publication CN108290942A.
One block for each binder: values may come before it.

Target: T1, 细胞实际分泌的信号素3A (UniProt Q14563)
T1 sequence (looked up): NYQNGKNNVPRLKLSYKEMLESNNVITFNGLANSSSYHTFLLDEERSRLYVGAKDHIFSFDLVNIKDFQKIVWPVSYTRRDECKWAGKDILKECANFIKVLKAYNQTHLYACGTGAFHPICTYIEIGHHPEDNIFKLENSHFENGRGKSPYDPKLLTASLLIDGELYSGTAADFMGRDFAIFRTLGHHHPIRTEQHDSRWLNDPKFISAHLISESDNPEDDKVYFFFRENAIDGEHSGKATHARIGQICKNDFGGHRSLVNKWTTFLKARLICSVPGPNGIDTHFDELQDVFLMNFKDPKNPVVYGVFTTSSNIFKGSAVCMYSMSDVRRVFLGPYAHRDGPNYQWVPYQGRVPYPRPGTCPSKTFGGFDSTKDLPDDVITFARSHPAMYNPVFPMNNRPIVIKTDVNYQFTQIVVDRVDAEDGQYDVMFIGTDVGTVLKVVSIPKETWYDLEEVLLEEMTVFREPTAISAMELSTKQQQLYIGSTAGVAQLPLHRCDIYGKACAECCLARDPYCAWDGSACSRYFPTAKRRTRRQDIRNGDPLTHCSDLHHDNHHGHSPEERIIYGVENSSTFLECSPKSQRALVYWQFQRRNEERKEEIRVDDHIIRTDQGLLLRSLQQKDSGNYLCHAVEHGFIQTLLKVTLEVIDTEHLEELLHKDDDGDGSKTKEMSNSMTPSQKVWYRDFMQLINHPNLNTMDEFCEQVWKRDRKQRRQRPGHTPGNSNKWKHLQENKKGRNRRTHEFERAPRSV
Test: cell-based or functional assay

细胞迁移 (transwell, 83细胞): 44% | 细胞迁移 (transwell, 131细胞): 19% | 细胞迁移 (transwell, U87-MG细胞, 50μg/ml scFv): 70%
B1: 抗信号素3A scFv抗体片段 C10 (scFv, part only; not given: linker and tags, not shown: large carriers)
scFv, part: EVQLLESGGGLVQPGGSLRLSCAASGFTFSDYAMSWVRQAPGKGLEWVSGIYYDDSSQYYADSVEGRFTISRDNSKNTLYLQMNSLRAEDTAVYYCARYLGLFDYWGQGTLVTVSSQSVLTQPPSASGTPGQRVTISCSGSSSNIGNNSVNWYQQLPGTAPKLLIYSDSQRPSGVPDRFSGSKSGTSASLAISGLRSEDEADYYCGSWDYSLSAYVFGGGTKLTVL
细胞生长速度 (EZ-Cytox, 131细胞, 50μg/ml scFv, 4天): 70%

细胞迁移 (transwell, 83细胞): 28% | 细胞迁移 (transwell, 131细胞): 7% | 细胞迁移 (transwell, U87-MG细胞, 50μg/ml scFv): 74%
B2: 抗信号素3A scFv抗体片段 F11 (scFv, part only; not given: linker and tags, not shown: large carriers)
scFv, part: EVQLLESGGGLVQTGGSLRLSCAASGFTFSDYAMSWVRQAPGKGLEWVSWIYYDSGSKYYADSVKGRFTISRDNSKNTLYLQMNSLRAEDTAVYYCAKLNGDFDYWGQGTLVTVSSQSVLTQPPSASGTPGQRVTISCSGSSSNIGNNDVSWYQQLPGTAPKLLIYADSHRPSGVPDRFSGSKSGTSASLAISGLRSEDEADYYCGAWDSSLSGYVFGGGTKLTVL
细胞生长速度 (EZ-Cytox, 131细胞, 50μg/ml scFv, 4天): 70%

细胞迁移 (transwell, 83细胞): 21% | 细胞迁移 (transwell, 131细胞): 11% | 细胞迁移 (transwell, U87-MG细胞, 50μg/ml scFv): 78%
B3: 抗信号素3A scFv抗体片段 A08 (scFv, part only; not given: linker and tags, not shown: large carriers)
scFv, part: EVQLLESGGGLVQPGGSLRLSCAASGFTFSDYAMSWVRQAPGKGLEWVSGIYYDDSSQYYADSVKGRFTISRDNSKNTLYLQMNSLRAEDTAVYYCAKNLGRFDYWGQGTLVTVSSQSVLTQPPSASGTPGQRVTISCTGSSSNIGSNAVTWYQQLPGTAPKLLIYDDNHRPSGVPDRFSGSKSGTSASLAISGLRSEDEADYYCGAWDDSLSAYVFGGGTKLTVL
细胞生长速度 (EZ-Cytox, 131细胞, 50μg/ml scFv, 4天): 70%
